The numbers were not newly measured in publication PMC9405667, which cites them from elsewhere.

The target of data set [1] is chemerin receptor 1 (chem1) (Homo sapiens) (UniProt Q99788).
For data set [2], the target named is chemerin receptor 2 (chem2) (Homo sapiens) (UniProt P46091).
Sequence of chemerin receptor 2 (chem2) (Homo sapiens) (P46091 whole entry): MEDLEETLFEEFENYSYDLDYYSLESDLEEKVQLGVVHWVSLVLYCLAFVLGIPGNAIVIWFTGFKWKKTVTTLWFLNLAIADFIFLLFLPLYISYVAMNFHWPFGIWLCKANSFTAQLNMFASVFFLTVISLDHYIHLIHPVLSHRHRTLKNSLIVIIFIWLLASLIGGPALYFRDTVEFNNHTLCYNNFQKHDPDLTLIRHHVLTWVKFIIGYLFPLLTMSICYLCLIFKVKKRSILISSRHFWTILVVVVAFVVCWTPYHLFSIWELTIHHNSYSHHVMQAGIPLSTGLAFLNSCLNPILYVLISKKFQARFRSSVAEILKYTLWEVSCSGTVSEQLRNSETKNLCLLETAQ

Sequence of chemerin (chem157S) (Q99969 21-157): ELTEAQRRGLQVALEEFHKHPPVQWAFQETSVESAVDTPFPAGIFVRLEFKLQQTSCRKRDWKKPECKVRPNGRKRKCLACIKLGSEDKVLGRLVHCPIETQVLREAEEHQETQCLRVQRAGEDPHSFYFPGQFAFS
Sequence of chemerin receptor 1 (chem1) (Homo sapiens) (Q99788 whole entry): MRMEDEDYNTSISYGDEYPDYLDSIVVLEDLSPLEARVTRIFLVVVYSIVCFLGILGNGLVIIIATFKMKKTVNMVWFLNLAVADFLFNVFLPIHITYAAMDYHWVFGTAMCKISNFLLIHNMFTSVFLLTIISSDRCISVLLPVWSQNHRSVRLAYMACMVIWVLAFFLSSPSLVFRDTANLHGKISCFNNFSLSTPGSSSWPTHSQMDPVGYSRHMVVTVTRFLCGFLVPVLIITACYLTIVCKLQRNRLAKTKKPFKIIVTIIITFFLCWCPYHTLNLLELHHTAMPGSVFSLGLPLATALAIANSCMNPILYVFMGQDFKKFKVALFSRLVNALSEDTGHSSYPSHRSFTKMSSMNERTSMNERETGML

“chemerin (chem157S) (from UniProt Q99969)”: the equilibrium dissociation constant (Kd) (as a rule, a measure of binding affinity in units of concentration) in data set [1] was 0.88 nM; in data set [2], 0.21 nM.
